{
  "source": "the supplement of paper PMC9112550",
  "about": "“Optimization of the antimicrobial peptide Bac7 by deep mutational scanning” (BMC Biology, 2022);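 note: peptides expressed intracellularly from a pBAD plasmid library in pooled LB shake-flask culture, induced with 0.3% L-arabinose, DNA abundance read by NGS, three biological replicates, DESeq2 with apeglm shrinkage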",
  "data": [
    {"test_system": "Escherichia coli TOP10", "assay": "shrunken log2 fold change of peptide-encoding DNA abundance (4.5 h post-induction vs induction); higher = less antimicrobial activity (less host growth inhibition)", "settings": "time post-induction: 4.5 h; library: site-saturation at positions 5, 18, 19, 20", "values": [
      {"sequence": "RRIRQRPPRLPRPRPRPHAVPRP", "shrunken log2 fold change": -0.0835},
      {"sequence": "RRIRSRPPRLPRPRPRPKIYPRP", "shrunken log2 fold change": -0.265},
      {"sequence": "RRIRERPPRLPRPRPRPEPPPRP", "shrunken log2 fold change": 0.595},
      {"sequence": "RRIRPRPPRLPRPRPRPWLIPRP", "shrunken log2 fold change": -0.31},
      {"sequence": "RRIRLRPPRLPRPRPRPVGDPRP", "shrunken log2 fold change": 0.416},
      {"sequence": "RRIRHRPPRLPRPRPRPITSPRP", "shrunken log2 fold change": -0.401},
      {"sequence": "RRIRARPPRLPRPRPRPYYIPRP", "shrunken log2 fold change": -0.409},
      {"sequence": "RRIRARPPRLPRPRPRPMCSPRP", "shrunken log2 fold change": 0.334},
      {"sequence": "RRIRYRPPRLPRPRPRPNSGPRP", "shrunken log2 fold change": -0.01},
      {"sequence": "RRIRIRPPRLPRPRPRPQGGPRP", "shrunken log2 fold change": 0.102},
      {"sequence": "RRIRWRPPRLPRPRPRPDYFPRP", "shrunken log2 fold change": -0.0991},
      {"sequence": "RRIRRRPPRLPRPRPRPVKSPRP", "shrunken log2 fold change": 0.625},
      {"sequence": "RRIRARPPRLPRPRPRPVDSPRP", "shrunken log2 fold change": -0.0786},
      {"sequence": "RRIRPRPPRLPRPRPRPAEKPRP", "shrunken log2 fold change": 0.0387},
      {"sequence": "RRIRWRPPRLPRPRPRPSACPRP", "shrunken log2 fold change": 0.382},
      {"sequence": "RRIRCRPPRLPRPRPRPCEAPRP", "shrunken log2 fold change": -0.369},
      {"sequence": "RRIRPRPPRLPRPRPRPWDWPRP", "shrunken log2 fold change": 0.00784},
      {"sequence": "RRIRMRPPRLPRPRPRPLPPPRP", "shrunken log2 fold change": 1.37},
      {"sequence": "RRIRLRPPRLPRPRPRPTEWPRP", "shrunken log2 fold change": -0.0906},
      {"sequence": "RRIRIRPPRLPRPRPRPVLEPRP", "shrunken log2 fold change": 0.0298},
      {"sequence": "RRIRQRPPRLPRPRPRPWEKPRP", "shrunken log2 fold change": -0.0123},
      {"sequence": "RRIRPRPPRLPRPRPRPQTFPRP", "shrunken log2 fold change": -0.495},
      {"sequence": "RRIRDRPPRLPRPRPRPHGKPRP", "shrunken log2 fold change": 0.0283},
      {"sequence": "RRIRSRPPRLPRPRPRPYENPRP", "shrunken log2 fold change": -0.229},
      {"sequence": "RRIRPRPPRLPRPRPRPSQQPRP", "shrunken log2 fold change": 0.0138},
      {"sequence": "RRIRLRPPRLPRPRPRPEANPRP", "shrunken log2 fold change": 0.075},
      {"sequence": "RRIRKRPPRLPRPRPRPTHRPRP", "shrunken log2 fold change": 1.15},
      {"sequence": "RRIRRRPPRLPRPRPRPDIMPRP", "shrunken log2 fold change": -0.146},
      {"sequence": "RRIRCRPPRLPRPRPRPPMFPRP", "shrunken log2 fold change": -0.121},
      {"sequence": "RRIRNRPPRLPRPRPRPMLQPRP", "shrunken log2 fold change": 0.00157},
      {"sequence": "RRIRVRPPRLPRPRPRPFLVPRP", "shrunken log2 fold change": -0.527},
      {"sequence": "RRIRVRPPRLPRPRPRPGTAPRP", "shrunken log2 fold change": 0.136},
      {"sequence": "RRIRKRPPRLPRPRPRPRPYPRP", "shrunken log2 fold change": 0.182},
      {"sequence": "RRIRKRPPRLPRPRPRPQKRPRP", "shrunken log2 fold change": 0.403},
      {"sequence": "RRIRFRPPRLPRPRPRPVMAPRP", "shrunken log2 fold change": -0.271},
      {"sequence": "RRIRYRPPRLPRPRPRPDEVPRP", "shrunken log2 fold change": 0.000691},
      {"sequence": "RRIRFRPPRLPRPRPRPCNNPRP", "shrunken log2 fold change": -0.82},
      {"sequence": "RRIRPRPPRLPRPRPRPFWGPRP", "shrunken log2 fold change": -0.0925},
      {"sequence": "RRIRVRPPRLPRPRPRPRHAPRP", "shrunken log2 fold change": 0.229},
      {"sequence": "RRIRMRPPRLPRPRPRPMMSPRP", "shrunken log2 fold change": 0.0456},
      {"sequence": "RRIRKRPPRLPRPRPRPWIHPRP", "shrunken log2 fold change": -0.145},
      {"sequence": "RRIRERPPRLPRPRPRPYWIPRP", "shrunken log2 fold change": -0.376},
      {"sequence": "RRIRNRPPRLPRPRPRPIAAPRP", "shrunken log2 fold change": 0.147},
      {"sequence": "RRIRMRPPRLPRPRPRPYYAPRP", "shrunken log2 fold change": -0.948},
      {"sequence": "RRIRDRPPRLPRPRPRPDIYPRP", "shrunken log2 fold change": 0.0286},
      {"sequence": "RRIRERPPRLPRPRPRPTQYPRP", "shrunken log2 fold change": -0.304},
      {"sequence": "RRIRARPPRLPRPRPRPFVWPRP", "shrunken log2 fold change": 0.204},
      {"sequence": "RRIRERPPRLPRPRPRPRVVPRP", "shrunken log2 fold change": 0.069},
      {"sequence": "RRIRDRPPRLPRPRPRPKIMPRP", "shrunken log2 fold change": 0.199},
      {"sequence": "RRIRGRPPRLPRPRPRPNQHPRP", "shrunken log2 fold change": 0.189},
      {"sequence": "RRIRSRPPRLPRPRPRPHIHPRP", "shrunken log2 fold change": 0.966},
      {"sequence": "RRIRPRPPRLPRPRPRPHPPPRP", "shrunken log2 fold change": 0.397},
      {"sequence": "RRIRRRPPRLPRPRPRPDSRPRP", "shrunken log2 fold change": 0.0229},
      {"sequence": "RRIRRRPPRLPRPRPRPSTGPRP", "shrunken log2 fold change": 0.112},
      {"sequence": "RRIRERPPRLPRPRPRPDYSPRP", "shrunken log2 fold change": -1.47},
      {"sequence": "RRIRWRPPRLPRPRPRPVLRPRP", "shrunken log2 fold change": 0.106},
      {"sequence": "RRIRKRPPRLPRPRPRPVGSPRP", "shrunken log2 fold change": 0.178},
      {"sequence": "RRIRFRPPRLPRPRPRPNEPPRP", "shrunken log2 fold change": -0.00783},
      {"sequence": "RRIRLRPPRLPRPRPRPEVYPRP", "shrunken log2 fold change": 0.0314},
      {"sequence": "RRIRQRPPRLPRPRPRPSKVPRP", "shrunken log2 fold change": -0.133},
      {"sequence": "RRIRKRPPRLPRPRPRPINDPRP", "shrunken log2 fold change": -0.48},
      {"sequence": "RRIRYRPPRLPRPRPRPENWPRP", "shrunken log2 fold change": -0.223},
      {"sequence": "RRIRQRPPRLPRPRPRPLTLPRP", "shrunken log2 fold change": -0.104},
      {"sequence": "RRIRVRPPRLPRPRPRPSRIPRP", "shrunken log2 fold change": 0.0876},
      {"sequence": "RRIRSRPPRLPRPRPRPQESPRP", "shrunken log2 fold change": -0.0242},
      {"sequence": "RRIRNRPPRLPRPRPRPRETPRP", "shrunken log2 fold change": -0.0277},
      {"sequence": "RRIRTRPPRLPRPRPRPINSPRP", "shrunken log2 fold change": -0.875},
      {"sequence": "RRIRIRPPRLPRPRPRPYGMPRP", "shrunken log2 fold change": -0.354},
      {"sequence": "RRIRIRPPRLPRPRPRPEVNPRP", "shrunken log2 fold change": -0.294},
      {"sequence": "RRIRRRPPRLPRPRPRPMYCPRP", "shrunken log2 fold change": -0.574},
      {"sequence": "RRIRQRPPRLPRPRPRPDPAPRP", "shrunken log2 fold change": 0.0492},
      {"sequence": "RRIRQRPPRLPRPRPRPEMIPRP", "shrunken log2 fold change": -0.0264},
      {"sequence": "RRIRSRPPRLPRPRPRPYCKPRP", "shrunken log2 fold change": -0.327},
      {"sequence": "RRIRWRPPRLPRPRPRPSWAPRP", "shrunken log2 fold change": 0.152},
      {"sequence": "RRIRARPPRLPRPRPRPNSGPRP", "shrunken log2 fold change": -0.0211},
      {"sequence": "RRIRARPPRLPRPRPRPKFQPRP", "shrunken log2 fold change": 0.328},
      {"sequence": "RRIRQRPPRLPRPRPRPSNTPRP", "shrunken log2 fold change": -0.824},
      {"sequence": "RRIRPRPPRLPRPRPRPAFFPRP", "shrunken log2 fold change": 0.186},
      {"sequence": "RRIRHRPPRLPRPRPRPFSPPRP", "shrunken log2 fold change": 0.0457},
      {"sequence": "RRIRIRPPRLPRPRPRPFWQPRP", "shrunken log2 fold change": -0.31},
      {"sequence": "RRIRNRPPRLPRPRPRPCLIPRP", "shrunken log2 fold change": -0.018},
      {"sequence": "RRIRDRPPRLPRPRPRPWDMPRP", "shrunken log2 fold change": -0.133},
      {"sequence": "RRIRKRPPRLPRPRPRPMCAPRP", "shrunken log2 fold change": 0.583},
      {"sequence": "RRIRCRPPRLPRPRPRPDMIPRP", "shrunken log2 fold change": -0.69},
      {"sequence": "RRIRWRPPRLPRPRPRPIAWPRP", "shrunken log2 fold change": 0.713},
      {"sequence": "RRIRYRPPRLPRPRPRPPNEPRP", "shrunken log2 fold change": -0.106},
      {"sequence": "RRIRIRPPRLPRPRPRPGVHPRP", "shrunken log2 fold change": 0.241},
      {"sequence": "RRIRNRPPRLPRPRPRPNKGPRP", "shrunken log2 fold change": -0.134},
      {"sequence": "RRIRQRPPRLPRPRPRPCNKPRP", "shrunken log2 fold change": 0.0281},
      {"sequence": "RRIRERPPRLPRPRPRPGPVPRP", "shrunken log2 fold change": 0.137},
      {"sequence": "RRIRVRPPRLPRPRPRPLIMPRP", "shrunken log2 fold change": -0.502},
      {"sequence": "RRIRHRPPRLPRPRPRPNGTPRP", "shrunken log2 fold change": -0.297},
      {"sequence": "RRIRNRPPRLPRPRPRPMNKPRP", "shrunken log2 fold change": 0.0642},
      {"sequence": "RRIRWRPPRLPRPRPRPCPGPRP", "shrunken log2 fold change": -0.218},
      {"sequence": "RRIRQRPPRLPRPRPRPFNLPRP", "shrunken log2 fold change": -0.649},
      {"sequence": "RRIRERPPRLPRPRPRPDYFPRP", "shrunken log2 fold change": -0.249},
      {"sequence": "RRIRRRPPRLPRPRPRPIMYPRP", "shrunken log2 fold change": -0.186},
      {"sequence": "RRIRMRPPRLPRPRPRPYKKPRP", "shrunken log2 fold change": -0.161},
      {"sequence": "RRIRMRPPRLPRPRPRPVPHPRP", "shrunken log2 fold change": 0.537},
      {"sequence": "RRIRGRPPRLPRPRPRPHTEPRP", "shrunken log2 fold change": -0.0408},
      {"sequence": "RRIRVRPPRLPRPRPRPWWRPRP", "shrunken log2 fold change": 1.25},
      {"sequence": "RRIRQRPPRLPRPRPRPPYSPRP", "shrunken log2 fold change": -0.224},
      {"sequence": "RRIRERPPRLPRPRPRPFICPRP", "shrunken log2 fold change": -0.36},
      {"sequence": "RRIRRRPPRLPRPRPRPCDTPRP", "shrunken log2 fold change": -0.092},
      {"sequence": "RRIRSRPPRLPRPRPRPCRHPRP", "shrunken log2 fold change": 0.063},
      {"sequence": "RRIRGRPPRLPRPRPRPYWQPRP", "shrunken log2 fold change": -0.369},
      {"sequence": "RRIRNRPPRLPRPRPRPANGPRP", "shrunken log2 fold change": 0.0343},
      {"sequence": "RRIRTRPPRLPRPRPRPLNHPRP", "shrunken log2 fold change": -0.204},
      {"sequence": "RRIRVRPPRLPRPRPRPRLRPRP", "shrunken log2 fold change": 0.311},
      {"sequence": "RRIRPRPPRLPRPRPRPNKYPRP", "shrunken log2 fold change": -0.662},
      {"sequence": "RRIRMRPPRLPRPRPRPRHTPRP", "shrunken log2 fold change": 1.15},
      {"sequence": "RRIRFRPPRLPRPRPRPYIMPRP", "shrunken log2 fold change": -1.09},
      {"sequence": "RRIRERPPRLPRPRPRPSAPPRP", "shrunken log2 fold change": 0.18},
      {"sequence": "RRIRGRPPRLPRPRPRPHETPRP", "shrunken log2 fold change": -0.022},
      {"sequence": "RRIRARPPRLPRPRPRPQNEPRP", "shrunken log2 fold change": -0.12},
      {"sequence": "RRIRMRPPRLPRPRPRPQHHPRP", "shrunken log2 fold change": -0.0825},
      {"sequence": "RRIRARPPRLPRPRPRPNEGPRP", "shrunken log2 fold change": -0.175},
      {"sequence": "RRIRGRPPRLPRPRPRPDRKPRP", "shrunken log2 fold change": 0.051}
    ]}
  ]
}
